Assay results: patent publication US20140206609A1 (Sanofi, published 2014)
*1 amine or outer side, *2 acyl side, *3 side chain or, on linkers, in order; H or OH if unused. Where no end group is shown, it is not given here. Side-chain parts run from the residue outwards. [ ]: non-standard residue; d: D form. The star is where a group is joined. γGlu = O=C(O)[C@H](CCC(=O)[*:2])N[*:1]; Palmitoyl = CCCCCCCCCCCCCCCC(=O)*; Aib = CC(C)(N)C(=O)O

T1: human GIP receptor (human, UniProt P48546 22-466)
T1 sequence (looked up): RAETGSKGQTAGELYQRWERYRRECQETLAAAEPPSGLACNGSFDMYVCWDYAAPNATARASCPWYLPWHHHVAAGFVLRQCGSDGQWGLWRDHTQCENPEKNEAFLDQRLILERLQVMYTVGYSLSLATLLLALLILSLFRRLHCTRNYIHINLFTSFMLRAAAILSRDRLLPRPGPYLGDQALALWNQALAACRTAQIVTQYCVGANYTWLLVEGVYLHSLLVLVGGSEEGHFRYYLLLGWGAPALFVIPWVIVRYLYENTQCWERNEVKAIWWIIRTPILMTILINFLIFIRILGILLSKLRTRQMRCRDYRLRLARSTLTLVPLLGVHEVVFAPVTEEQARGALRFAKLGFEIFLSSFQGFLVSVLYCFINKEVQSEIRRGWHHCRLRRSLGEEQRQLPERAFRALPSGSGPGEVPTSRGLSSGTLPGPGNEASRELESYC


Experiments:
Test in all cases: cell-based or functional assay
[1] = target: human GLP-1 receptor (human, UniProt P43220 24-463)
[2] = target: T1, human GIP receptor
[3] = target: human glucagon receptor (human, UniProt P47871 26-477)
human glucagon receptor, sequence (P47871 26-477): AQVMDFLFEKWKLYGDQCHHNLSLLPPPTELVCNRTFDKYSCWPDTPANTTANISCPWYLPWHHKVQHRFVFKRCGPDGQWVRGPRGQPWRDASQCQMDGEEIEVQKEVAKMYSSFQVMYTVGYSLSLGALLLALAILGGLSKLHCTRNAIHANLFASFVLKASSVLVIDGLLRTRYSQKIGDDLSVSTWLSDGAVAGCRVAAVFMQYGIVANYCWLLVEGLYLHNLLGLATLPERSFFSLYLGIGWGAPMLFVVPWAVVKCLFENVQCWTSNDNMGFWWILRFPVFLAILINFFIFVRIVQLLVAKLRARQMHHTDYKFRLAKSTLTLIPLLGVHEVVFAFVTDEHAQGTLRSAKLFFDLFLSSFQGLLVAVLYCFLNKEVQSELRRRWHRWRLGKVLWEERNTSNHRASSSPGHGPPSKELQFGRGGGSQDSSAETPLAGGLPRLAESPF

Binder | EC50 hGLP-1 R [pM] [1] [pM] | EC50 hGIP R [pM] [2] [pM] | EC50 hGLUC R [pM] [3] [pM]
Y[Aib]EGTFTSDLSIQK([γGlu-Palmitoyl])EKRAAQEFIEWLKAGGPSSGAPPPS-NH2 (N-terminus assumed; SMILES CCCCCCCCCCCCCCCC(=O)N[C@@H](CCC(=O)NCCCC[C@H](NC(=O)[C@H](CCC(N)=O)NC(=O)[C@@H](NC(=O)[C@H](CO)NC(=O)[C@H](CC(C)C)NC(=O)[C@H](CC(=O)O)NC(=O)[C@H](CO)NC(=O)[C@@H](NC(=O)[C@H](Cc1ccccc1)NC(=O)[C@@H](NC(=O)CNC(=O)[C@H](CCC(=O)O)NC(=O)C(C)(C)NC(=O)[C@@H](N)Cc1ccc(O)cc1)[C@@H](C)O)[C@@H](C)O)[C@@H](C)CC)C(=O)N[C@@H](CCC(=O)O)C(=O)N[C@@H](CCCCN)C(=O)N[C@@H](CCCNC(=N)N)C(=O)N[C@@H](C)C(=O)N[C@@H](C)C(=O)N[C@@H](CCC(N)=O)C(=O)N[C@@H](CCC(=O)O)C(=O)N[C@@H](Cc1ccccc1)C(=O)N[C@H](C(=O)N[C@@H](CCC(=O)O)C(=O)N[C@@H](Cc1c[nH]c2ccccc12)C(=O)N[C@@H](CC(C)C)C(=O)N[C@@H](CCCCN)C(=O)N[C@@H](C)C(=O)NCC(=O)NCC(=O)N1CCC[C@H]1C(=O)N[C@@H](CO)C(=O)N[C@@H](CO)C(=O)NCC(=O)N[C@@H](C)C(=O)N1CCC[C@H]1C(=O)N1CCC[C@H]1C(=O)N1CCC[C@H]1C(=O)N[C@@H](CO)C(N)=O)[C@@H](C)CC)C(=O)O) [SEQ ID NO: 34] | 4.6 | 22.2 | 11600
Y[Aib]EGTFTSDLSIQK([γGlu-Palmitoyl])ESRAA[Aib]EFIEWLKAGGPSSGAPPPS-NH2 (N-terminus assumed; SMILES CCCCCCCCCCCCCCCC(=O)N[C@@H](CCC(=O)NCCCC[C@H](NC(=O)[C@H](CCC(N)=O)NC(=O)[C@@H](NC(=O)[C@H](CO)NC(=O)[C@H](CC(C)C)NC(=O)[C@H](CC(=O)O)NC(=O)[C@H](CO)NC(=O)[C@@H](NC(=O)[C@H](Cc1ccccc1)NC(=O)[C@@H](NC(=O)CNC(=O)[C@H](CCC(=O)O)NC(=O)C(C)(C)NC(=O)[C@@H](N)Cc1ccc(O)cc1)[C@@H](C)O)[C@@H](C)O)[C@@H](C)CC)C(=O)N[C@@H](CCC(=O)O)C(=O)N[C@@H](CO)C(=O)N[C@@H](CCCNC(=N)N)C(=O)N[C@@H](C)C(=O)N[C@@H](C)C(=O)NC(C)(C)C(=O)N[C@@H](CCC(=O)O)C(=O)N[C@@H](Cc1ccccc1)C(=O)N[C@H](C(=O)N[C@@H](CCC(=O)O)C(=O)N[C@@H](Cc1c[nH]c2ccccc12)C(=O)N[C@@H](CC(C)C)C(=O)N[C@@H](CCCCN)C(=O)N[C@@H](C)C(=O)NCC(=O)NCC(=O)N1CCC[C@H]1C(=O)N[C@@H](CO)C(=O)N[C@@H](CO)C(=O)NCC(=O)N[C@@H](C)C(=O)N1CCC[C@H]1C(=O)N1CCC[C@H]1C(=O)N1CCC[C@H]1C(=O)N[C@@H](CO)C(N)=O)[C@@H](C)CC)C(=O)O) [SEQ ID NO: 35] | 6.9 | 7.3 | 39100
Y[Aib]EGTFTSDLSIQK([γGlu-Palmitoyl])DKRAAQDFIEWLKAGGPSSGAPPPS-NH2 (N-terminus assumed; SMILES CCCCCCCCCCCCCCCC(=O)N[C@@H](CCC(=O)NCCCC[C@H](NC(=O)[C@H](CCC(N)=O)NC(=O)[C@@H](NC(=O)[C@H](CO)NC(=O)[C@H](CC(C)C)NC(=O)[C@H](CC(=O)O)NC(=O)[C@H](CO)NC(=O)[C@@H](NC(=O)[C@H](Cc1ccccc1)NC(=O)[C@@H](NC(=O)CNC(=O)[C@H](CCC(=O)O)NC(=O)C(C)(C)NC(=O)[C@@H](N)Cc1ccc(O)cc1)[C@@H](C)O)[C@@H](C)O)[C@@H](C)CC)C(=O)N[C@@H](CC(=O)O)C(=O)N[C@@H](CCCCN)C(=O)N[C@@H](CCCNC(=N)N)C(=O)N[C@@H](C)C(=O)N[C@@H](C)C(=O)N[C@@H](CCC(N)=O)C(=O)N[C@@H](CC(=O)O)C(=O)N[C@@H](Cc1ccccc1)C(=O)N[C@H](C(=O)N[C@@H](CCC(=O)O)C(=O)N[C@@H](Cc1c[nH]c2ccccc12)C(=O)N[C@@H](CC(C)C)C(=O)N[C@@H](CCCCN)C(=O)N[C@@H](C)C(=O)NCC(=O)NCC(=O)N1CCC[C@H]1C(=O)N[C@@H](CO)C(=O)N[C@@H](CO)C(=O)NCC(=O)N[C@@H](C)C(=O)N1CCC[C@H]1C(=O)N1CCC[C@H]1C(=O)N1CCC[C@H]1C(=O)N[C@@H](CO)C(N)=O)[C@@H](C)CC)C(=O)O) [SEQ ID NO: 31] | 6 | 6.5 | 3080
Y[Aib]QGTFTSDLSIQK([γGlu-Palmitoyl])DSRAA[Aib]DFIEWLKAGGPSSGAPPPS-NH2 (N-terminus assumed; SMILES CCCCCCCCCCCCCCCC(=O)N[C@@H](CCC(=O)NCCCC[C@H](NC(=O)[C@H](CCC(N)=O)NC(=O)[C@@H](NC(=O)[C@H](CO)NC(=O)[C@H](CC(C)C)NC(=O)[C@H](CC(=O)O)NC(=O)[C@H](CO)NC(=O)[C@@H](NC(=O)[C@H](Cc1ccccc1)NC(=O)[C@@H](NC(=O)CNC(=O)[C@H](CCC(N)=O)NC(=O)C(C)(C)NC(=O)[C@@H](N)Cc1ccc(O)cc1)[C@@H](C)O)[C@@H](C)O)[C@@H](C)CC)C(=O)N[C@@H](CC(=O)O)C(=O)N[C@@H](CO)C(=O)N[C@@H](CCCNC(=N)N)C(=O)N[C@@H](C)C(=O)N[C@@H](C)C(=O)NC(C)(C)C(=O)N[C@@H](CC(=O)O)C(=O)N[C@@H](Cc1ccccc1)C(=O)N[C@H](C(=O)N[C@@H](CCC(=O)O)C(=O)N[C@@H](Cc1c[nH]c2ccccc12)C(=O)N[C@@H](CC(C)C)C(=O)N[C@@H](CCCCN)C(=O)N[C@@H](C)C(=O)NCC(=O)NCC(=O)N1CCC[C@H]1C(=O)N[C@@H](CO)C(=O)N[C@@H](CO)C(=O)NCC(=O)N[C@@H](C)C(=O)N1CCC[C@H]1C(=O)N1CCC[C@H]1C(=O)N1CCC[C@H]1C(=O)N[C@@H](CO)C(N)=O)[C@@H](C)CC)C(=O)O) [SEQ ID NO: 30] | 12 | 22.1 | 226
Y[Aib]EGTFTSDLSIQK([γGlu-Palmitoyl])EKRAAQDFIEWLKAGGPSSGAPPPS-NH2 (N-terminus assumed; SMILES CCCCCCCCCCCCCCCC(=O)N[C@@H](CCC(=O)NCCCC[C@H](NC(=O)[C@H](CCC(N)=O)NC(=O)[C@@H](NC(=O)[C@H](CO)NC(=O)[C@H](CC(C)C)NC(=O)[C@H](CC(=O)O)NC(=O)[C@H](CO)NC(=O)[C@@H](NC(=O)[C@H](Cc1ccccc1)NC(=O)[C@@H](NC(=O)CNC(=O)[C@H](CCC(=O)O)NC(=O)C(C)(C)NC(=O)[C@@H](N)Cc1ccc(O)cc1)[C@@H](C)O)[C@@H](C)O)[C@@H](C)CC)C(=O)N[C@@H](CCC(=O)O)C(=O)N[C@@H](CCCCN)C(=O)N[C@@H](CCCNC(=N)N)C(=O)N[C@@H](C)C(=O)N[C@@H](C)C(=O)N[C@@H](CCC(N)=O)C(=O)N[C@@H](CC(=O)O)C(=O)N[C@@H](Cc1ccccc1)C(=O)N[C@H](C(=O)N[C@@H](CCC(=O)O)C(=O)N[C@@H](Cc1c[nH]c2ccccc12)C(=O)N[C@@H](CC(C)C)C(=O)N[C@@H](CCCCN)C(=O)N[C@@H](C)C(=O)NCC(=O)NCC(=O)N1CCC[C@H]1C(=O)N[C@@H](CO)C(=O)N[C@@H](CO)C(=O)NCC(=O)N[C@@H](C)C(=O)N1CCC[C@H]1C(=O)N1CCC[C@H]1C(=O)N1CCC[C@H]1C(=O)N[C@@H](CO)C(N)=O)[C@@H](C)CC)C(=O)O) [SEQ ID NO: 33] | 6.4 | 9.1 | 12900
Y[Aib]QGTFTSDLSIQK([γGlu-Palmitoyl])DSRAAQEFIEWLKAGGPSSGAPPPS-NH2 (N-terminus assumed; SMILES CCCCCCCCCCCCCCCC(=O)N[C@@H](CCC(=O)NCCCC[C@H](NC(=O)[C@H](CCC(N)=O)NC(=O)[C@@H](NC(=O)[C@H](CO)NC(=O)[C@H](CC(C)C)NC(=O)[C@H](CC(=O)O)NC(=O)[C@H](CO)NC(=O)[C@@H](NC(=O)[C@H](Cc1ccccc1)NC(=O)[C@@H](NC(=O)CNC(=O)[C@H](CCC(N)=O)NC(=O)C(C)(C)NC(=O)[C@@H](N)Cc1ccc(O)cc1)[C@@H](C)O)[C@@H](C)O)[C@@H](C)CC)C(=O)N[C@@H](CC(=O)O)C(=O)N[C@@H](CO)C(=O)N[C@@H](CCCNC(=N)N)C(=O)N[C@@H](C)C(=O)N[C@@H](C)C(=O)N[C@@H](CCC(N)=O)C(=O)N[C@@H](CCC(=O)O)C(=O)N[C@@H](Cc1ccccc1)C(=O)N[C@H](C(=O)N[C@@H](CCC(=O)O)C(=O)N[C@@H](Cc1c[nH]c2ccccc12)C(=O)N[C@@H](CC(C)C)C(=O)N[C@@H](CCCCN)C(=O)N[C@@H](C)C(=O)NCC(=O)NCC(=O)N1CCC[C@H]1C(=O)N[C@@H](CO)C(=O)N[C@@H](CO)C(=O)NCC(=O)N[C@@H](C)C(=O)N1CCC[C@H]1C(=O)N1CCC[C@H]1C(=O)N1CCC[C@H]1C(=O)N[C@@H](CO)C(N)=O)[C@@H](C)CC)C(=O)O) [SEQ ID NO: 29] | 7 | 127 | 46.8
